Reference: patent US20260258394A1, “PLANT ENZYMES WITH IMPROVED ACTIVITY” (MAX-PLANCK-GESELLSCHAFT ZUR FÖRDERUNG DER WISSENSCHAFTEN …, priority 2023, published 2026)
Substitutions are numbered along the chain they refer to.

Tests used:
Test in all cases: mass photometry of purified protein
[1] = molecular target: T1, GCC M5_L100N (M. extorquens) β-subunit L100N, Y143H, D407I, I450V, W502R mutations (Methylorubrum extorquens)
T1 construct: Engineered β-subunit, forms the β6 core; Cryo-EM structure PDB 8PN8; also called S100N; GCC M5 S100N
T1 chain: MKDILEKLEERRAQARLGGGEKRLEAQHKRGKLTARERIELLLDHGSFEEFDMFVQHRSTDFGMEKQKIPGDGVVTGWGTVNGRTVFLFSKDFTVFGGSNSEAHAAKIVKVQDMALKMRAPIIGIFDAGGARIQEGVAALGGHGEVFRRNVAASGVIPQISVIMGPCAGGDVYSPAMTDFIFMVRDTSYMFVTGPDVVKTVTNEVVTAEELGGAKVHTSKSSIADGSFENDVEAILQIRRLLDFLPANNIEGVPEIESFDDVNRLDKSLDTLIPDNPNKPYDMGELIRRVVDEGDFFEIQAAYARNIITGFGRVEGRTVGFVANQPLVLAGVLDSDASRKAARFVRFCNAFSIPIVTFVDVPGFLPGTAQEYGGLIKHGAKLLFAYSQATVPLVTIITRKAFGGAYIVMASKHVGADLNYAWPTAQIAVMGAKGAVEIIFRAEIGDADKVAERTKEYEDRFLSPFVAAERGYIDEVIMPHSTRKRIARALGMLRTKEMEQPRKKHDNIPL
Procedure: (§1) Mass photometry (MP) measurements were carried out on microscope coverslips (1.5 H, 24×50 mm, Carl Roth) with CultureWell™ Reusable Gaskets (CW-50R-1.0, 50-3 mm diameter×1 mm depth) that had been washed by three consecutive rinses of water and isopropanol, prior to drying under a stream of pressurized air. Gaskets were assembled on microscope coverslips and placed on the stage of a TwoMP mass photometer (MP, Refeyn Ltd, Oxford, UK) with immersion oil. Measurements were carried out in 1× phosphate-buffered saline (PBS, 10 mM Na₂HPO₄, 1.8 mM KH₂PO₄, 137 mM NaCl, 2.7 mM KCl (pH 7.4)). To this end, 18 μL 1×PBS was used to focus the MP before 2 μL sample (1 μM protein) was added, rapidly mixed, and measured. Shortly before measuring, samples were prepared by diluting purified protein to 1 μM monomer concentration in buffer (50 mM HEPES, pH 7.8, 150 mM KCl), as determined by absorption at 280 nm. Data was acquired for 60 s at 100 frames per second using AcquireMP (Refeyn Ltd, Oxford, UK). MP contrast was calibrated to molecular masses using 50 nM of in-house purified protein mixture containing citrate-synthase complexes of known molecular masses ranging from 86 to 430 kDa. MP datasets were processed and analyzed using DiscoverMP (Refeyn Ltd, Oxford, UK). Details of MP image analysis have been described previously (Sonn-Segev, et al., 2020, Nat Commun 11, 1772).

[2] = molecular target: T2, PCC WT (M. extorquens) β-subunit (Methylorubrum extorquens)
T2 construct: Wild-type β-subunit of propionyl-CoA carboxylase, forms the β6 core; also called PCC wildtype; PCC from M. extorquens
T2 chain: T1 chain with N100L, H143Y, I407D, V450I, R502W
Procedure: as §1

[3] = molecular target: T3, GCC M5 (M. extorquens) β-subunit L100S, Y143H, D407I, I450V, W502R mutations (Methylorubrum extorquens)
T3 construct: Engineered β-subunit (carboxyltransferase), forms the β6 core; also called S100S; β6 core of GCC M5
T3 chain: T1 chain with N100S
Procedure: as §1

Measured: binding result

B1: PCC WT (M. extorquens) α-subunit (enzyme)
chain: MFDKILIANRGEIACRIIKTAQKMGIKTVAVYSDADRDAVHVAMADEAVHIGPAPAAQSYLLIEKIIDACKQTGAQAVHPGYGFLSERESFPKALAEAGIVFIGPNPGAIAAMGDKIESKKAAAAAEVSTVPGFLGVIESPEHAVTIADEIGYPVMIKASAGGGGKGMRIAESADEVAEGFARAKSEASSSFGDDRVFVEKFITDPRHIEIQVIGDKHGNVIYLGERECSIQRRNQKVIEEAPSPLLDEETRRKMGEQAVALAKAVNYDSAGTVEFVAGQDKSFYFLEMNTRLQVEHPVTEMITGLDLVELMIRVAAGEKLPLSQDQVKLDGWAVESRVYAEDPTRNFLPSIGRLTTYQPPEEGPLGGAIVRNDTGVEEGGEIAIHYDPMIAKLVTWAPTRLEAIEAQATALDAFAIEGIRHNIPFLATLMAHPRWRDGRLSTGFIKEEFPEGFIAPEPEGPVAHRLAAVAAAIDHKLNIRKRGISGQMRDPSLLTFQRERVVVLSGQRFNVTVDPDGDDLLVTFDDGTTAPVRSAWRPGAPVWSGTVGDQSVAIQVRPLLNGVFLQHAGAAAEARVFTRREAELADLMPVKENAGSGKQLLCPMPGLVKQIMVSEGQEVKNGEPLAIVEAMKMENVLRAERDGTISKIAAKEGDSLAVDAVILEFA
modifications: biotin covalently bound to a lysine (position not given)
notes: Co-expressed with the β-subunit and BirA in E. coli BL21-birA and purified by His-Trap; also called α-subunit of the PCC; GCC M5 α-subunit
binds: all assays above
